Consider 8 molecules from patent publication US20140308201A1 (Novartis, published 2014).

In test [1] the target is T1, Human FGFR2 IIIb D1-3 (human).
T1 construct: Extracellular domains D1-3 with C-terminal tag, made in HEK293T; also called recombinant human FGFR2 IIIb; hFGFR2
T1 chain: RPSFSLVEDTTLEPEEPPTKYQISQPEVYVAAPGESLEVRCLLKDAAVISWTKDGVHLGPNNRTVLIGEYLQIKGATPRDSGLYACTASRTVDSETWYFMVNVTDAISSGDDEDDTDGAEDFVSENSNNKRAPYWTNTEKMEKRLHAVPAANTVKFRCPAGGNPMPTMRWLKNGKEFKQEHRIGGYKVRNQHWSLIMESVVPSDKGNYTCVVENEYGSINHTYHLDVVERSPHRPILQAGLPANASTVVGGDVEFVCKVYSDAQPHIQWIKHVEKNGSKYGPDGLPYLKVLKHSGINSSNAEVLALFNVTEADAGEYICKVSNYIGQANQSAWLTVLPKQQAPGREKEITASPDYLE
The test is described as follows: SPR Biacore, IgG captured via anti-human Fc, soluble FGFR as analyte. The protocol: (§1) Affinity of the antibodies to FGFR2 species orthologues was determined using Biacore technology using a Biacore T100 instrument (GE Systems) and with CM5 sensor chips.
(§2) For kinetic measurements, experiments were performed in which the antibodies were immobilized to the sensor chip surface and the ability of the FGFR proteins described above listed in Table 1 to bind in free solution was determined Briefly, 50 μg/ml of anti-human Fc antibody at pH 4.75 was immobilized on a CM5 sensor chip through amine coupling at flow rate of 10 μl/minute on all four flow cells to reach 6000 RUs. […] Subsequently, 0.078-100 nM of FGFR receptors, diluted in a 2-fold series, were injected at a flow rate of 80 μl/min for 7 min over both reference and test flow cells. Dissociation of the binding was followed for 10 min using HBS-EP⁺ supplemented with 0.5 mg/ml of BSA and 10 μg/ml heparin as running buffer. After each injection cycle, the chip surface was regenerated with 10 mM glycine, pH 2.0 at 60 μl/min for 70 s.
A general note: Surface plasmon resonance follows binding to a sensor surface in real time, without labels.

In test [2] the target is T2, Cynomolgus monkey FGFR2 IIIb D1-3 (cynomolgus monkey).
T2 construct: also called Cyno FGFR2 IIIb
T2 chain: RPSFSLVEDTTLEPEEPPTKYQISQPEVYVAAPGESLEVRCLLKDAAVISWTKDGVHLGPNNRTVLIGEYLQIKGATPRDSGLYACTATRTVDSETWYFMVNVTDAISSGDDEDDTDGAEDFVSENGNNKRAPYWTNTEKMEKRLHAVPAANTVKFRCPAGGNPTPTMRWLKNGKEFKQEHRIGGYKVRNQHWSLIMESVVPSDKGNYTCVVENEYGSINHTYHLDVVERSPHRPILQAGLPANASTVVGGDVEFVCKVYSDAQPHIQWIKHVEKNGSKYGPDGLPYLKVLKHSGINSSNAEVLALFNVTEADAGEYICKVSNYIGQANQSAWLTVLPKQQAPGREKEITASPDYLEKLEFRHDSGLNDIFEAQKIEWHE
The description is as above. The procedure: as §1, §2

The target in a further test is T3, Mouse FGFR2 IIIb D1-3 (mouse).
T3 chain: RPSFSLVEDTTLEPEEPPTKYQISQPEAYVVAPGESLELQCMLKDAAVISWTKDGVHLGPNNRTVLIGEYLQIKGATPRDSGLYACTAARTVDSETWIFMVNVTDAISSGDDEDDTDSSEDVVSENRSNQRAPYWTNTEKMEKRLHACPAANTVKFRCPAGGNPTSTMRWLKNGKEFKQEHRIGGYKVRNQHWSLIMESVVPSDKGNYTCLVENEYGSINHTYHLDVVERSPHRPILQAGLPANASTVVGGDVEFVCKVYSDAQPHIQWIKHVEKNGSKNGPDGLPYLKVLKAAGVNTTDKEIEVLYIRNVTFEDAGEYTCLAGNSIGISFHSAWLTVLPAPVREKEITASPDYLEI
Described as above. The protocol:
as §1, §2

The target in another test is T4, Rat FGFR2 IIIb D1-3 (rat).
T4 chain: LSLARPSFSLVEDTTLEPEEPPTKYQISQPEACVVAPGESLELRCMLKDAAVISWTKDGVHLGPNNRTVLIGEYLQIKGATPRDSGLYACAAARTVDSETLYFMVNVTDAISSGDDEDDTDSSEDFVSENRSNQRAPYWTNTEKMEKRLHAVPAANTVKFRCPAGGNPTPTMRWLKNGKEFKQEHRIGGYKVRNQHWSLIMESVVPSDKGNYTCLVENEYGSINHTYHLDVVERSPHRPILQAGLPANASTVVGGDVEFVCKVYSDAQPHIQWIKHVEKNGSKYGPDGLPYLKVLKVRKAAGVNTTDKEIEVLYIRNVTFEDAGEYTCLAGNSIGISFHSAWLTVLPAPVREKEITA
The test is described as above. The procedure:
as §1, §2

Test [3] has as its target T1, Human FGFR2 IIIb D1-3. The test is described as follows: SPR Biacore, method as Example 2. The procedure: as §2
Another test has as its target T5, FGFR2 D2-D3 Construct (human).
T5 construct: E. coli made, not glycosylated; also called E. Coli. derived FGFR2D2-D3 protein
T5 chain: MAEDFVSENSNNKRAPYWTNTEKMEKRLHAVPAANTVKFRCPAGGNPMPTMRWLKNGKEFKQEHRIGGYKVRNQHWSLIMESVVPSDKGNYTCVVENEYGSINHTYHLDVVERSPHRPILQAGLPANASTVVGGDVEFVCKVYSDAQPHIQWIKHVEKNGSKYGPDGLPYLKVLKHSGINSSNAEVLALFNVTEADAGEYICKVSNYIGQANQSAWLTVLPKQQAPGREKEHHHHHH
The test is described as follows: HDx-MS, antigen incubated 30 min with antibody. The procedure: The epitope mapping experiments described in this example were performed on a Waters HDx-MS platform, which includes a LEAP autosampler, nanoACQUITY UPLC System, and Synapt G2 mass spectrometer. The studies were automated by a LEAP autosampler operated by the LeapShell software, which performed initiation of the deuterium exchange reaction, reaction time control, quench reaction, injection onto the UPLC system and digestion time control. The Leap autosampler was equipped with two temperature controlled stacks maintained at 25° C. for HDx reaction and maintained at 2° C. for storage of protein and quench solution, respectively. Triplicate control experiments were carried out on antigen at a deuterium exchange time of 25 minutes. HDX was quenched with quenching buffer (6 M urea and 1 M TCEP pH=2.5). […] Triplicate experiments were carried out on antigen-mAb complex just as the control experiments except in these experiments the antigen in incubated for 30 min with the antibody at 25° C. prior to deuterium exchange.

Test [4] has as its target T1, Human FGFR2 IIIb D1-3. Description: SPR Biacore, method as Example 2. The procedure: as §2
For test [5], the target named is T2, Cynomolgus monkey FGFR2 IIIb D1-3. Description: SPR Biacore, method as Example 2. The procedure:
as §2

In another test the target is T6, complement factor Clq (UniProt P02745 23-245; P02746 28-253; P02747 29-245).
T6 construct: bought (Sigma C1740); also called C1q; Complement component Clq (Sigma C1740)
T6 sequence (P02745 23-245 limits assumed, chain 1 of 3): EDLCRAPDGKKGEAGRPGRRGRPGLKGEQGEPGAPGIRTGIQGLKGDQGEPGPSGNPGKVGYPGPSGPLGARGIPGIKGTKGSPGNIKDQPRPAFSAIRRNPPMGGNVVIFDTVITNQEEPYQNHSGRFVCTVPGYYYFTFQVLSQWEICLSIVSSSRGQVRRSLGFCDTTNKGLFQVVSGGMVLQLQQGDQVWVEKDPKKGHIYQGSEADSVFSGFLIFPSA
T6 sequence (P02746 28-253 limits assumed, chain 2 of 3): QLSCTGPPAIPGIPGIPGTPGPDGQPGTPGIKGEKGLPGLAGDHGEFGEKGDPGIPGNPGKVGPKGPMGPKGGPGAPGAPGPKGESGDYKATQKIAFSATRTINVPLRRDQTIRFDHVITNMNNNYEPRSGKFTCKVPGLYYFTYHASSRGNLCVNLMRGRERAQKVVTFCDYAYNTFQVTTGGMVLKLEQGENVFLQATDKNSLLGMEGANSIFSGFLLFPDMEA
T6 sequence (P02747 29-245 limits assumed, chain 3 of 3): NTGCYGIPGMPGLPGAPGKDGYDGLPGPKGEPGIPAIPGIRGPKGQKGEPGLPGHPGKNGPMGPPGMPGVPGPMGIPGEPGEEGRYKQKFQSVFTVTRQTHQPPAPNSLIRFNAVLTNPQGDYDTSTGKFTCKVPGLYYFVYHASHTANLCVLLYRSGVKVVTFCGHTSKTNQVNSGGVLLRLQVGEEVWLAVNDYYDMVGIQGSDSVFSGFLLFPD
The test is described as follows: ELISA, antibody coated in serial dilution, constant C1q; inferred from about 50% coating. (In general: An ELISA detects its analyte on a solid surface through an enzyme-linked reagent.)

Test [6] addresses T1, Human FGFR2 IIIb D1-3. Description: SPR Biacore, method as Example 2.
A further test addresses T7, Human FGFR4 ECD (human, UniProt P22455 22-369).
T7 construct: Extracellular domain with C-terminal tag
Description: screening of panning outputs for specificity and cross-reactivity (assays of Example 1).

The target in test [7] is T1, Human FGFR2 IIIb D1-3. The test is described as follows: SPR Biacore, similar assay conditions.
Test [8] deals with T1, Human FGFR2 IIIb D1-3. Description: SET or Biacore, IgG.

Description for complement factor Clq: In additional studies, the ability of the unconjugated anti-FGFR2 antibodies to bind the complement factor Clq was evaluated. […] In order to monitor the amount of bound antibody analyte on the microtiterplate, this procedure was performed twice per plate utilizing the second dilution (in triplicate) for determining the coating efficacy of the analyte to the plate.

B1: mAb11725 (antibody, human IgG1, lambda, V domains shown)
VH: QVQLLESGGGLVQPGGSLRLSCAASGFTFNTYWLHWVRQAPGKGLEWVSVISSDSSSTYYADSVKGRFTISRDNSKNTLYLQMNSLRAEDTAVYYCARDSRLDYWGQGTLVTVSS
VL: DIELTQPPSVSVSPGQTASITCSGDSIGDTYVDWYQQKPGQAPVLVIYDDIDRPSGIPERFSGSNSGNTATLTISGTQAEDEADYYCYVYAWTGTSNVFGGGTKLTVLG
notes: HuCAL human IgG1
With B1, the Kd (in general, the equilibrium constant for the complex coming apart) with Human FGFR2 IIIb D1-3 [1] turned out to be 26 nM; in [2], 7.3 nM; in the test with Mouse FGFR2 IIIb D1-3, 130 nM; in the test with Rat FGFR2 IIIb D1-3, 140 nM; in the test with Human FGFR2 IIIb D1-3 [3], 3.3 nM.

B2: mAb10164 (antibody, human IgG1, lambda, V domains shown)
VH: QVQLVESGGGLVKPGGSLRLSCAASGFTFSSYALSWVRQAPGKGLEWVGRIRSKIDGGTTDYAAPVKGRFTISRDDSKNTLYLQMNSLKTEDTAVYYCARDRSPSDSSAFAIWGQGTLVTVSS
VL: DIELTQPPSVSVSPGQTASITCSGDNLGSQYVDWYQQKPGQAPVLVIYDDNDRPSGIPERFSGSNSGNTATLTISGTQAEDEADYYCQSWDSLSVVFGGGTKLTVLG
notes: HuCAL human IgG1
B2: the binding result in the test with FGFR2 D2-D3 Construct was “binds”. Moreover, the dissociation constant (Kd) was 2 nM with Human FGFR2 IIIb D1-3 [4]; 9 nM in [5]; 19 nM with Human FGFR2 IIIb D1-3 [1]; 16 nM in test [2]; 2 nM with Human FGFR2 IIIb D1-3 [3]. Also, the “C1q binding capacity against the other antibodies” value in the test with complement factor Clq is about 2 fold.

B3: mAb20437 (antibody, human IgG1, lambda, V domains shown)
VH: EVQLVESGGGLVKPGGSLRLSCAASGFTFSSYALSWVRQAPGKGLEWVGRIRSRIEGGTTDYAAPVRGRFTISRDDSKNTLYLQMNSLKTEDTAVYYCARDRSPSDSSAFAIWGQGTLVTVSS
VL: SYELTQPLSVSVALGQTARITCSGDNLGSQYVDWYQQKPGQAPVLVIYDDNDRPSGIPERFSGSNSGNTATLTISRAQAGDEADYYCQSWDSLSVVFGGGTKLTVLG
notes: human IgG1
Turning to B3, the Kd with Human FGFR2 IIIb D1-3 [6] was 3.1 nM.

B4: mAb12422 (antibody, human IgG1, kappa, V domains shown)
VH: QVQLVQSGAEVKKPGSSVKVSCKASGGTFSSYAISWVRQAPGQGLEWMGYISPYMGETHYAQKFQGRVTITADESTSTAYMELSSLRSEDTAVYYCARESYEYFDIWGQGTLVTVSS
VL: DIQMTQSPSSLSASVGDRVTITCRASQSISNDLAWYQQKPGKAPKLLIYATSILQSGVPSRFSGSGSGTDFTLTISSLQPEDFATYYCLQYYDYSYTFGQGTKVEIKR
notes: HuCAL human IgG1
As for B4, the equilibrium dissociation constant (Kd) was 5.1 nM with Human FGFR2 IIIb D1-3 [1]; 7.4 nM in [2]; 7.7 nM in the test with Mouse FGFR2 IIIb D1-3; 9.7 nM with Rat FGFR2 IIIb D1-3; 5.1 nM with Human FGFR2 IIIb D1-3 [3]. Besides, the binding result in the test with Human FGFR4 ECD is listed as “binds”.

B5: mAb20562 (antibody, human IgG1, kappa, V domains shown)
VH: EVQLLESGGGLVQPGGSLRLSCAASGFTFSDYAMSWVRQAPGKGLEWVSVIEGDASYTHYADSVRGRFTISRDNSKNTLYLQMNSLRAEDTAVYYCARERTYSSAFDYWGQGTLVTVSS
VL: DIQMTQSPSSLSASVGDRVTITCRASQDISSDLNWYQQKPGKAPKLLIYDASNLQSGVPSRFSGSGSGTDFTLTISSLQPEDFATYYCQQHYSPSHTFGQGTKVEIKR
notes: human IgG1
Turning to B5, in the test with Human FGFR2 IIIb D1-3 [7], the affinity, expressed as Kd, was 9 nM.

B6: mAb12947 (antibody, human IgG1, kappa, V domains shown)
VH: QVQLVQSGAEVKKPGSSVKVSCKASGGTFSSYAISWVRQAPGQGLEWMGSIQPTAGPARYAQKFQGRVTITADESTSTAYMELSSLRSEDTAVYYCARASLYSVATGSYWKVYHPFDSWGQGTLVTVSS
VL: DIQMTQSPSSLSASVGDRVTITCRASQDIYSYLAWYQQKPGKAPKLLIYDASSLQSGVPSRFSGSGSGTDFTLTISSLQPEDFATYYCQQADQYPVTFGQGTKVEIKR
notes: HuCAL human IgG1
For B6, the Kd in the test with Human FGFR2 IIIb D1-3 [1] came to 2.7 nM; in test [2], 2.4 nM; in the test with Mouse FGFR2 IIIb D1-3 it was 3.1 nM; with Rat FGFR2 IIIb D1-3, 5.1 nM; with Human FGFR2 IIIb D1-3 [3], 2.7 nM.

B7: mAb12439 (antibody, human IgG1, kappa, V domains shown)
VH: QVQLVQSGAEVKKPGASVKVSCKASGYTFTSYDISWVRQAPGQGLEWMGWINPYNGGTNYAQKFQGRVTMTRDTSISTAYMELSRLRSEDTAVYYCAREGSGMIVYPGWSYAFDYWGQGTLVTVSS
VL: DIQMTQSPSSLSASVGDRVTITCRASQDISNDLGWYQQKPGKAPKLLIYAASSLQSGVPSRFSGSGSGTDFTLTISSLQPEDFATYYCQQHYHTPNTFGQGTKVEIKR
notes: HuCAL human IgG1
As to B7, the equilibrium dissociation constant (Kd) with Human FGFR2 IIIb D1-3 [1] turned out to be 15 nM; in test [2] it was 5.6 nM; with Mouse FGFR2 IIIb D1-3 it was 15 nM; with Rat FGFR2 IIIb D1-3, 16 nM; in the test with Human FGFR2 IIIb D1-3 [3] it was 15 nM. The binding result in the test with Human FGFR4 ECD is given as “binds”.

B8: mAb20811 (antibody, human IgG1, kappa, V domains shown)
VH: QVQLLESGGGLVQPGGSLRLSCAASGFTFSDYAMSWVRQAPGKGLEWVSTIEGDSNYIEYADSVKGRFTISRDNSKNTLYLQMNSLRAEDTAVYYCARERTYSSAFDYWGQGTLVTVSS
VL: DIQMTQSPSSLSASVGDRVTITCRASQDISSDLNWYQQKPGKAPKLLIYDASNLQSGVPSRFSGSGSGTDFTLTISSLQPEDFATYYCHQWYSTLYTFGQGTKVEIKR
notes: IgG
For the molecule B8, the Kd with Human FGFR2 IIIb D1-3 [8] was determined as 0.11 nM.
